In patent publication US20160017049A1 (Genentech, published 2016):

What was measured:
huGPC(aa359-559) = molecular target: T1, huGPC(aa359-559) (human, UniProt P51654 359-559); experiment: FACS on 293 cells expressing the gD-tagged fragment
T1 construct: Expressed on the surface of 293 cells
T1 sequence: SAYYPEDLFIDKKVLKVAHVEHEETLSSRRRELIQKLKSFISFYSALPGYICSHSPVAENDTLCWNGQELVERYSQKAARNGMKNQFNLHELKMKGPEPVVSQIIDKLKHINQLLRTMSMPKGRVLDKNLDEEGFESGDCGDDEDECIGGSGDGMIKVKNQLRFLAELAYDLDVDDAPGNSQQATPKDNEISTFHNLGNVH
Description: (§1) C-terminal truncation constructs of huGPC(aa359-589) were made to further refine the epitopes for antibodies 4A11 and 15G1. […] The three C-terminal truncations each comprised an HSV N-terminal signal sequence (SS) and gD sequence (SEQ ID NO: 41) and C-terminal glycophosphatidylinositol anchor (GPI link). The huGPC truncation constructs were expressed on the surface of 293 cells and antibody binding was determined by FACS. An anti-gD was used as a positive control. Vector-transfected 293 cells were used as a negative control.

huGPC(aa359-509) = molecular target: T2, huGPC(aa359-509) (HSV; human); experiment: as above
T2 construct: Expressed on the surface of 293 cells; not shown: C-terminal glycophosphatidylinositol anchor (GPI link)
T2 chain: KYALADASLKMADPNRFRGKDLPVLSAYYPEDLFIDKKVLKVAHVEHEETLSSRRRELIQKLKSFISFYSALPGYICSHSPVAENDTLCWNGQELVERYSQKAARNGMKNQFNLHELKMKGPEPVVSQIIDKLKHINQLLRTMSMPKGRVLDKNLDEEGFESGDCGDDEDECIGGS
Description: as §1

[1] = molecular target: T3, human GPC3 C-terminal fragment, amino acids 359 to 560, with GPI link (human, UniProt P51654 359-560); experiment: FACS on 293S cells expressing the C-terminal fragment of GPC3
T3 construct: also called huGPC(aa359-560); not shown: C-terminal glycophosphatidylinositol anchor (GPI link)
T3 sequence: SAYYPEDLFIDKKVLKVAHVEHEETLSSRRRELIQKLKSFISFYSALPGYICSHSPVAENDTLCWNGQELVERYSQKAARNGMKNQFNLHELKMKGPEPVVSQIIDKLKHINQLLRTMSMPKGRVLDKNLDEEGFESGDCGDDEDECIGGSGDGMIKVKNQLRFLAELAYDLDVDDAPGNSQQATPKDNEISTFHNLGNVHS
Excerpt: C-terminal truncation constructs of human GPC3 were made to further refine the epitopes for antibodies 7H1 and 4G7. […] The three C-terminal truncations each comprised the GPC N-terminal signal sequence (SS) and C-terminal glycophosphatidylinositol anchor (GPI link). […] See FIG. 7 (Santa Cruz Biotechnology antibody 1G12, which was raised to amino acids 511-580 of human GPC3, was used as a positive control for C-terminal fragment binding). Antibody 7H1 was reformatted as a chimeric antibody with human A118C cysteine-engineered IgG1 and Igκ constant regions (SEQ ID NOs: 42 and 43).

huGPC(aa359-470) = molecular target: T4, huGPC(aa359-470) (HSV; human); experiment: FACS on 293 cells expressing the gD-tagged fragment
T4 construct: Expressed on the surface of 293 cells; not shown: C-terminal glycophosphatidylinositol anchor (GPI link)
T4 chain: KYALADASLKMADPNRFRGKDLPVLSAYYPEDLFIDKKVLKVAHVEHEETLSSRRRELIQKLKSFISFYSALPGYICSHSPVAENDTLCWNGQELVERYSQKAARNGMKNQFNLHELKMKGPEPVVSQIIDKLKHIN
Description: as §1

[2] = molecular target: T5, human GPC3 N-terminal fragment, amino acids 25 to 358, with GPI link (human, UniProt P51654 25-358); experiment: Western blot probed with 7H1, lysate of stably transfected cells
T5 construct: not shown: C-terminal glycophosphatidylinositol anchor (GPI link)

[3] = molecular target: T6, human GPC3 C-terminal truncation, amino acids 25 to 137, with GPI link (human, UniProt P51654 25-137); experiment: Western blot probed with 7H1, lysate of transiently transfected cells
T6 construct: not shown: C-terminal glycophosphatidylinositol anchor (GPI link)

[4] = molecular target: T7, human GPC3 C-terminal truncation, amino acids 25 to 247, with GPI link (human, UniProt P51654 25-247); experiment: as above
T7 construct: not shown: C-terminal glycophosphatidylinositol anchor (GPI link)
T7 sequence (P51654 25-247): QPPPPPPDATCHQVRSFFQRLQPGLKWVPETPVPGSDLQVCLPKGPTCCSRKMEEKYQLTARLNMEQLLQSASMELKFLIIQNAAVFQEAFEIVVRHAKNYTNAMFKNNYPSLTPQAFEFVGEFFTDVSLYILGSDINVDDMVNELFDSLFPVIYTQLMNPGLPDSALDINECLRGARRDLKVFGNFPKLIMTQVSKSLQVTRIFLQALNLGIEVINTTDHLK

T6 sequence (P51654 25-137): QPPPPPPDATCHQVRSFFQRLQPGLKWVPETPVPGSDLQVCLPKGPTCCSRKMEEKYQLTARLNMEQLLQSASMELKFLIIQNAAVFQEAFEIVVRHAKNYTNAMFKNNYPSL
T5 sequence (P51654 25-358): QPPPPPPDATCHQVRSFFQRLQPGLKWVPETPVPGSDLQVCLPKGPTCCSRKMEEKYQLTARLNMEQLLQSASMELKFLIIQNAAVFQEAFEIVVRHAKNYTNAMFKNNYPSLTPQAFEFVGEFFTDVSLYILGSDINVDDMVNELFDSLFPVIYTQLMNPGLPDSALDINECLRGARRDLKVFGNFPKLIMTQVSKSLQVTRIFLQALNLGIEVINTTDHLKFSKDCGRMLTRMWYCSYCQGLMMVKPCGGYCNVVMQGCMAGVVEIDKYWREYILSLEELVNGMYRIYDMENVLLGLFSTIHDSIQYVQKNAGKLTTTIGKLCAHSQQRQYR

B1: antibody 4A11 (antibody, human IgG1, kappa)
heavy: not shown
light: DIVMTQSPSSMYASLGERVTITCKASQDINSYLSWFQQKPGKSPKTLIYRVNRLVDGVPSRFSGSGSGQDYSLTISSLEYEDVGIYYCLQYDEFPLTLGAGTKLELKRTVAAPSVFIFPPSDEQLKSGTASVVCLLNNFYPREAKVQWKVDNALQSGNSQESVTEQDSKDSTYSLSSTLTLSKADYEKHKVYACEVTHQGLSSPVTKSFNRGEC
notes: also called 4A11 thio-HC A118C
huGPC(aa359-559)
  binding result: binds
huGPC(aa359-509)
  binding result: binds

B2: antibody 4G7 (antibody, V domains shown)
VH: EVQLQQSGTVLARPGASVKMSCKASGYTFTSYWVHWVKQRPGQGLEWIGAIYPGNIDASYNQKFKGKAKLTAVTSTSTAYMELSSLTNEDSAVYYCSYDYDAWFVYWGQGTLVTVSA
VL: DIQMTQSHKFMSTSVGDRVSITCKASQDVSTAVAWYQQKPGQSPTLLIYSASYRYTGVPDRFTGSGSGTDFTFTISSVQAEDLAVYYCQQHYFTPRTFGGGTKLELK
[1]
  binding result: no binding

B3: antibody 15G1 (antibody, human IgG1, kappa, V domains shown)
VH: EVQLLETGGGLVQPGGSRGLSCEGSGFTFSGFWMSWVRQTPGKTLEWIGDINSDGSSINYAPSIKDRFTIFRDNDKSILYLQMTNVRSEDTGTYFCVTTYGDYWGQGTTLTVSS
VL: DIVMTQSQKFMSTSVGDRVSVTCKASQNVGSHVGWYQQKSGQSPKALIYSASNRYIGVPDRFTGSGSGTDFTLTISNVQSEDLAEYFCQQYHIYPYTFGGGTRLEIKR
notes: also called 15G1 thio-HC A118C
huGPC(aa359-559)
  binding result: binds
huGPC(aa359-509)
  binding result: binds
huGPC(aa359-470)
  binding result: binds

B4: antibody 7H1 (antibody, V domains shown)
VH: QVQLQQSGPELVKPGASVKISCKASGYTFTDYYINWVKQKPGQGLEWIGWIYPGSGHTECNETFKGKATLTVDTSSSTAYMQLSSLTSEDTAVYFCTRGYYAPMGYFDYWGQGTTLTVSS
VL: DIQMTQSPSSLSASLGERVSLTCRASQEISGYLSWLQQKPDGTIKRLIYAASTLDSGVPKRFSGSRSGSDYSLTISGLESEDFADYYCLQYASYPYTFGGGTKLEIK
notes: Mouse monoclonal from Balb/c mice immunised with huGPC3 ECD-Flag
[1]
  binding result: no binding
[2]
  binding result: binds
[3]
  binding result: binds
[4]
  binding result: binds
